The numbers were not newly measured in PMC12990809, which cites them from elsewhere.

Targets include PABPC1 (Homo sapiens) (UniProt P11940); PABPC3 (Homo sapiens) (UniProt Q9H361); RALY (Homo sapiens) (UniProt Q9UKM9).
Test in all cases: pulldown
Conditions in all cases: 20 nM protein, 1.5 uM RNA pool; 20 mM HEPES pH 7.8, 70 mM KCl, 10 mM NaCl, 10% glycerol, 2 mM DTT, 0.1 ug/uL BSA; 30 min, 4 C (protocol of this paper; not …); cited from earlier work

The target of series [1] is T1, rin (Drosophila melanogaster) (UniProt A0ACM8PZ16).
T1 sequence: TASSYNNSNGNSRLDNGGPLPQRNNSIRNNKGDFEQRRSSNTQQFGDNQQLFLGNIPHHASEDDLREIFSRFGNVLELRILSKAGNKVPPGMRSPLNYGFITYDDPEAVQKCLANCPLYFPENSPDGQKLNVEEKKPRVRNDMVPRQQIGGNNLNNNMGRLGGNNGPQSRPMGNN

The target of a further series is T2, CNOT4 (Homo sapiens) (UniProt O95628).
T2 sequence: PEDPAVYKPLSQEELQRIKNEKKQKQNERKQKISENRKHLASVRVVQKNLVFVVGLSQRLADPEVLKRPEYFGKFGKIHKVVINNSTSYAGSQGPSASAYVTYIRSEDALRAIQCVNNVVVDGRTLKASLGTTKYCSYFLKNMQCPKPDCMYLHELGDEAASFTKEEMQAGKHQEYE

Series [2] addresses T3, B52 (Drosophila melanogaster) (UniProt P26686).
T3 sequence: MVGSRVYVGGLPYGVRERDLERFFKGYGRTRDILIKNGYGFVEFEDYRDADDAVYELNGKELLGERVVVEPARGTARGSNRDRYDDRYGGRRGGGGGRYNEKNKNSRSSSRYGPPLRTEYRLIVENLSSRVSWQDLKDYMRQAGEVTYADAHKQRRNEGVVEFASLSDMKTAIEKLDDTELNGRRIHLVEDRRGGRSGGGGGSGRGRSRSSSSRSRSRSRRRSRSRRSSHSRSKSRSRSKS

The target in another series is T4, CPEB2 (Homo sapiens) (UniProt Q7Z5Q1).
T4 sequence: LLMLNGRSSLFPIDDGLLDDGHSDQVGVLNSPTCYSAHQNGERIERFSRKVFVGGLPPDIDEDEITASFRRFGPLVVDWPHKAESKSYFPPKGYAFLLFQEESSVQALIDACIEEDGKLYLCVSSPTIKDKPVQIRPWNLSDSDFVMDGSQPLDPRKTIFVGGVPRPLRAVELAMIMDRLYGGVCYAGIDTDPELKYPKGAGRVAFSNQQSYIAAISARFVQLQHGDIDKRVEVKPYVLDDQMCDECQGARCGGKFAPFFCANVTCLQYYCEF

Series [3] deals with T5, papi (Drosophila melanogaster) (UniProt Q9VQ91).
T5 sequence: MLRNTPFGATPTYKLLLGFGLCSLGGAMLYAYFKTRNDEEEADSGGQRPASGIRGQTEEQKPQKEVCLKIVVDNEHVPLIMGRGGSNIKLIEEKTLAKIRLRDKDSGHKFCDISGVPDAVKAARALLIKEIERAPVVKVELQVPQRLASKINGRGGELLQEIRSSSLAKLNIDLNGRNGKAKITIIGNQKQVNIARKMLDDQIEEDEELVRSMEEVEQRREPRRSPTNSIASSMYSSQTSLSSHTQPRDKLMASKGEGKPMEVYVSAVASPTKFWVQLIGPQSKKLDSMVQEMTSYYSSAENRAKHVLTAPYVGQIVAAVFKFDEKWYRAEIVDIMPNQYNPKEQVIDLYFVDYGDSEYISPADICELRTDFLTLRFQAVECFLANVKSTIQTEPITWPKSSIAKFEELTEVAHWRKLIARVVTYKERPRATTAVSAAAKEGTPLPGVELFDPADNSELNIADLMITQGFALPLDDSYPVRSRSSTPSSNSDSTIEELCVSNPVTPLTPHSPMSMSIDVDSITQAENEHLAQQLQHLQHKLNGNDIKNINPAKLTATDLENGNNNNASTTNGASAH

For a further series, the target named is T6, PABPN1 (Homo sapiens) (UniProt Q86U42).
T6 sequence: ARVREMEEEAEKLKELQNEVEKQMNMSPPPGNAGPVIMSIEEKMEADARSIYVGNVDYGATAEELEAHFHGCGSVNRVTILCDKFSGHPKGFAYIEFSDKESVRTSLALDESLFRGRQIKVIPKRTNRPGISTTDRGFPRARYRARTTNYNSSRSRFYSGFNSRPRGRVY

In series [4] the target is pAbp (Drosophila melanogaster) (UniProt P21187).
The target in a further series is T7, RBMS1 (Homo sapiens) (UniProt P29558).
T7 sequence: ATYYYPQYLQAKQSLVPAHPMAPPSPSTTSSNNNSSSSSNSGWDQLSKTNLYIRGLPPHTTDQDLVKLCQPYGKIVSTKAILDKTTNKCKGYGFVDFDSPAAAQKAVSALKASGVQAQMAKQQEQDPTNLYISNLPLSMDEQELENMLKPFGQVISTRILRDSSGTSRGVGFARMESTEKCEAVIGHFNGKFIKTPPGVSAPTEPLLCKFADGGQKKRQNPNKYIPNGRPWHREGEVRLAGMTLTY

Series [5] deals with T8, CG5213 (Drosophila melanogaster) (UniProt Q7JY27).
T8 sequence: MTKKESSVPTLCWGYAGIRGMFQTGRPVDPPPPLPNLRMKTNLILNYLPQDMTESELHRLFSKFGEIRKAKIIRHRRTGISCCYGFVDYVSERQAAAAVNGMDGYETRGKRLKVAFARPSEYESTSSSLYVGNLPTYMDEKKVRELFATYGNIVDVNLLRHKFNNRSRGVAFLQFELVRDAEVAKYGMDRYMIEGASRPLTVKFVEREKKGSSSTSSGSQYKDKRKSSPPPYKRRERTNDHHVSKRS

In series [6] the target is mub (Drosophila melanogaster) (UniProt M9NGB9).
Series [7] concerns the target T9, CG7804 (Drosophila melanogaster) (UniProt Q7JW23).
T9 sequence: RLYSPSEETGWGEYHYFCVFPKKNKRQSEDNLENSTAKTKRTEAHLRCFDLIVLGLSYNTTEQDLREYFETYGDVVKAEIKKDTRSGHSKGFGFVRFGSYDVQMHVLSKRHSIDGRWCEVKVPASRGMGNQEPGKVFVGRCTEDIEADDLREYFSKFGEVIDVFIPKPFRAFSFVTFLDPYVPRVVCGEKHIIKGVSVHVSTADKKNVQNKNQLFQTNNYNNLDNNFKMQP

A further series addresses T10, A1CF (Homo sapiens) (UniProt Q9NQ94).
T10 sequence: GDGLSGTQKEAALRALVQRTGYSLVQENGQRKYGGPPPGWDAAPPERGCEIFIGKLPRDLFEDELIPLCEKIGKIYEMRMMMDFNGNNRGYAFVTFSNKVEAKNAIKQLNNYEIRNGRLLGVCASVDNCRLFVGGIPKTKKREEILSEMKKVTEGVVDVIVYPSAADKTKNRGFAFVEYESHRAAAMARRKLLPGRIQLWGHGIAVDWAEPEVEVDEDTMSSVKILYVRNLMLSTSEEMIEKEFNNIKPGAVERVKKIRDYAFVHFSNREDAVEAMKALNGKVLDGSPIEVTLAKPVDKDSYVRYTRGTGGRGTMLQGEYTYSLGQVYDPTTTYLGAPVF

A further series deals with T11, RBM42 (Homo sapiens) (UniProt Q9BTD8).
T11 sequence: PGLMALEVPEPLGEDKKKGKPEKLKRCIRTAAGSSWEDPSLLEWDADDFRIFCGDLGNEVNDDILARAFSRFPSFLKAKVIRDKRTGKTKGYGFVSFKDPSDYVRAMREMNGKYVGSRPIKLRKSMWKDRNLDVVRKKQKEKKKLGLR

The target of another series is T12, ESRP2 (Homo sapiens) (UniProt Q9H6T0).
T12 sequence: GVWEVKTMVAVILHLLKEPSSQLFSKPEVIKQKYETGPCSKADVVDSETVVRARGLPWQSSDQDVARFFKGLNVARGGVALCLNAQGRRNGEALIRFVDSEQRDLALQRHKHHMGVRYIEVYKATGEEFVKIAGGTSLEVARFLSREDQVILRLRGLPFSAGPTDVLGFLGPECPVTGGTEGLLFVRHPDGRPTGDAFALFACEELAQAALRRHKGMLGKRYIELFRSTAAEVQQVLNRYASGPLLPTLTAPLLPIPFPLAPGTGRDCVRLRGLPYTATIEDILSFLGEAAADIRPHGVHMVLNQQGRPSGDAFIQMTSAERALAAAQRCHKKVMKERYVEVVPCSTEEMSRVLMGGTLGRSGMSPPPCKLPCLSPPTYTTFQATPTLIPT

Series [8] has as its target T13, snf (Drosophila melanogaster) (UniProt P43332).
T13 sequence: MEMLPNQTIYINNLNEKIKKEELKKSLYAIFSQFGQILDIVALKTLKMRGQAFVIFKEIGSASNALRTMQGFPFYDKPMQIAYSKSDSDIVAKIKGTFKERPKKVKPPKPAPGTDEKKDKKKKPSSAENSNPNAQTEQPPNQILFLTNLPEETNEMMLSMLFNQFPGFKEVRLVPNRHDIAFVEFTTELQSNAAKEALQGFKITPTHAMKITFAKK

The target of series [9] is T14, CG2931 (Drosophila melanogaster) (UniProt Q7JZA8).
T14 sequence: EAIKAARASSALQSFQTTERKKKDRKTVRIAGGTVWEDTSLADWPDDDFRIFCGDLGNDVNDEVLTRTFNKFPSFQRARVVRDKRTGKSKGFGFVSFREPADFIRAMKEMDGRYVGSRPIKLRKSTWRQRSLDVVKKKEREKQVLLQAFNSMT

The target in a further series is T15, CPEB4 (Homo sapiens) (UniProt Q17RY0).
T15 sequence: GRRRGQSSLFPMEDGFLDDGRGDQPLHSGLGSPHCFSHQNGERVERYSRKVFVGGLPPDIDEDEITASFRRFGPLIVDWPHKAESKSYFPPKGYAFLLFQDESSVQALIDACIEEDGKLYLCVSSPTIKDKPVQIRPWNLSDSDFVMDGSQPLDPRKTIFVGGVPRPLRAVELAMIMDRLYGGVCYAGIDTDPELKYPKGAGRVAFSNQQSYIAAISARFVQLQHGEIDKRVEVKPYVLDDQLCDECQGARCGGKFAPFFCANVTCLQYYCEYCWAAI

For series [10], the target named is T16, qkr58E-1 (Drosophila melanogaster) (UniProt Q7JVR3).
T16 sequence: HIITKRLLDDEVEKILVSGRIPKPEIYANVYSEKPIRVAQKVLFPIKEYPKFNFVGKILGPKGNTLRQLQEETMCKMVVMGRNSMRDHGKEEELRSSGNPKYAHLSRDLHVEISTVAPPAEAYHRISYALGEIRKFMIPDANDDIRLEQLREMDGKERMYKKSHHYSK

RALY (Homo sapiens), sequence (Q9UKM9 1-136): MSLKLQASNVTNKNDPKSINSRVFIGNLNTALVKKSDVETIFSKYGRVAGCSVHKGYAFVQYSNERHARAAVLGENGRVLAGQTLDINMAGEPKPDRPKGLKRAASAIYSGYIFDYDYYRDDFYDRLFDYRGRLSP
mub (Drosophila melanogaster), sequence (M9NGB9 entry or part of it): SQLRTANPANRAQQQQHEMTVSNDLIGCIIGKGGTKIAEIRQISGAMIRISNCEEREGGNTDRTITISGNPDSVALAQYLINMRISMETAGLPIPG
pAbp (Drosophila melanogaster), sequence (P21187 1-408): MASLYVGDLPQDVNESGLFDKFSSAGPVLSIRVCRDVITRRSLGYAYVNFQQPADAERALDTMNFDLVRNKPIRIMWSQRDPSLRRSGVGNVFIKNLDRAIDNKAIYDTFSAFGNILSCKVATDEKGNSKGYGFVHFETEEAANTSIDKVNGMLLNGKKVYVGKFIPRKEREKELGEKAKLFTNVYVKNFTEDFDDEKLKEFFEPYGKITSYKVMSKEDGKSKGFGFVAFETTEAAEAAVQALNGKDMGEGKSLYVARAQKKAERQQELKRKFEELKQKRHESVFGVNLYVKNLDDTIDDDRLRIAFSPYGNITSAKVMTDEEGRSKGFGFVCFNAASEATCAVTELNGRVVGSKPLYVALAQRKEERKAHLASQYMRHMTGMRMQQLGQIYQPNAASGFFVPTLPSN
PABPC1 (Homo sapiens), sequence (P11940 1-414): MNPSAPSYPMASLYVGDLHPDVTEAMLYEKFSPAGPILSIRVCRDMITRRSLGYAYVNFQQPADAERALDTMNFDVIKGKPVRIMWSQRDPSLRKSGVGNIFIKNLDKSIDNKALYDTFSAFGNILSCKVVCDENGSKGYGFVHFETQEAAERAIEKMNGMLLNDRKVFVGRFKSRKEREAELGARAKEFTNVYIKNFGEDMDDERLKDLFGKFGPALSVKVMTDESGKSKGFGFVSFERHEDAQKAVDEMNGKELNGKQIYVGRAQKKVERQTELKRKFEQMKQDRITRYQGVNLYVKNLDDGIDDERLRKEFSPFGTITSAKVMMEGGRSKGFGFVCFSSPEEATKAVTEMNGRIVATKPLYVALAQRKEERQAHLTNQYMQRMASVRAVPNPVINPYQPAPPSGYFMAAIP
PABPC3 (Homo sapiens), sequence (Q9H361 1-414): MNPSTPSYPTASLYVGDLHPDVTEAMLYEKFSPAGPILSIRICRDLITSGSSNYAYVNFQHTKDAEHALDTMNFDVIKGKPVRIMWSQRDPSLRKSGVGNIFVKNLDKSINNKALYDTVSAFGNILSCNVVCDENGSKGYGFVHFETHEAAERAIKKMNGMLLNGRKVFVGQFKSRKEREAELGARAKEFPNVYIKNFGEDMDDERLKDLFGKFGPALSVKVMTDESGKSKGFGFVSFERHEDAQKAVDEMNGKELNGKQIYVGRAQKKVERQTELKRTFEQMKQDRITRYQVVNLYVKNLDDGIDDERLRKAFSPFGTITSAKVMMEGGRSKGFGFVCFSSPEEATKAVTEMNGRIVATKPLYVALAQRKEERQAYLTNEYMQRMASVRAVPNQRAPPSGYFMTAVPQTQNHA

Consider GGGUGGG [RNAcompete motif RNCMPT00138], for which the binding signal (z-score (mean of top ten 7-mers)) in series [1] was 9.16.

For GACAGA [RNAcompete motif RNCMPT00156], in the series with CNOT4 (Homo sapiens), the binding signal (z-score (mean of top ten 7-mers)) is 19. Turning to GAAAAA [RNAcompete motif RNCMPT00155], the binding signal (z-score (mean of top ten 7-mers)) in the series with PABPC1 (Homo sapiens) was 11.3. In the case of GGAGGGG [RNAcompete motif RNCMPT00134], in series [2], the binding signal (z-score (mean of top ten 7-mers)) was 7.73.

CCUUUUU [RNAcompete motif RNCMPT00012]: the binding signal (z-score (mean of top ten 7-mers)) with CPEB2 (Homo sapiens) was 10.8. In the case of UNUGUGU [RNAcompete motif RNCMPT00011], in [3], the binding signal (z-score (mean of top ten 7-mers)) was 17.7.

As to AGAAGA [RNAcompete motif RNCMPT00157], the binding signal (z-score (mean of top ten 7-mers)) in the series with PABPN1 (Homo sapiens) is 11.4. On to GAAAA [RNAcompete motif RNCMPT00139], for which the binding signal (z-score (mean of top ten 7-mers)) in series [4] was 13. As for AUAUAG [RNAcompete motif RNCMPT00152], the binding signal (z-score (mean of top ten 7-mers)) in the series with RBMS1 (Homo sapiens) was 7.69. As for UACUUU [RNAcompete motif RNCMPT00010], in series [5], the binding signal (z-score (mean of top ten 7-mers)) was 11.8.

As for AAAACC [RNAcompete motif RNCMPT00153], in the series with PABPC3 (Homo sapiens), the binding signal (z-score (mean of top ten 7-mers)) is 8.16. AACCCU [RNAcompete motif RNCMPT00137]: the binding signal (z-score (mean of top ten 7-mers)) in [6] was 10.1. With GNGUG [RNAcompete motif RNCMPT00146], in [7], the binding signal (z-score (mean of top ten 7-mers)) was 8.15. Consider UAAUUG [RNAcompete motif RNCMPT00001], for which, in the series with A1CF (Homo sapiens), the binding signal (z-score (mean of top ten 7-mers)) is 12.6. For the substance AACUANG [RNAcompete motif RNCMPT00151], the binding signal (z-score (mean of top ten 7-mers)) in the series with RBM42 (Homo sapiens) is 11.2.

Turning to AUGGGGA [RNAcompete motif RNCMPT00150], the binding signal (z-score (mean of top ten 7-mers)) with ESRP2 (Homo sapiens) is 7.36. Consider UUUUUU [RNAcompete motif RNCMPT00159], for which the binding signal (z-score (mean of top ten 7-mers)) with RALY (Homo sapiens) is 16.1. Turning to UUGCACA [RNAcompete motif RNCMPT00145], in series [8], the binding signal (z-score (mean of top ten 7-mers)) was 14. Consider ACUAAG [RNAcompete motif RNCMPT00147], for which the binding signal (z-score (mean of top ten 7-mers)) in series [9] is 11.6. UUUUUU [RNAcompete motif RNCMPT00158]: the binding signal (z-score (mean of top ten 7-mers)) with CPEB4 (Homo sapiens) is 14.8. ANAAUAA [RNAcompete motif RNCMPT00142]: the binding signal (z-score (mean of top ten 7-mers)) in series [10] is 6.18.
